Results reported in patent US9314532B2, “Drug delivery vehicle” (University of North Texas Health Science Center, priority 2012, dated 2016).
Ends that are not written are not given here.

Key:
[1] = mRNA encapsulation, particle size; assay type: physicochemical; conditions: mRNA/phospholipid particles upon addition of the MYR-5A peptide
Excerpt: In an embodiment of the present invention, ˜2 kb mRNA was encapsulated to improve its functionality and bioavailability. mRNA was combined with phospholipid in the presence of detergent and particles of approximately 3 μm diameter were obtained. […] The smaller particle is suitable for efficient delivery of the mRNA to target cells and for therapeutic applications.

[2] = paclitaxel encapsulation efficiency into myristoyl peptide nanoparticles (3H-paclitaxel); assay type: physicochemical; conditions: after centrifugation at 5,000 RPM for 5 minutes
Protocol: Paclitaxel encapsulation efficiency into myristoyl peptide nanoparticles based on measurements of 3H-paclitaxel is shown in FIG. 8. […] In order to clarify the preparations, the samples were centrifuged at 5,000 RPM for 5 minutes.

For “DWLKAFYDKVAEKLKEAFPDWAKAAYDKAAEKAKEAA (also: myristoyl, place not given here) [MYR-5A, control peptide]”, which particle size [1] is on record?
The particle size was ~500 nm.

For “EKLKALLEKLLAKLKELL (also: myristoyl, place not given here) [compound 39877]”, which “initial amount of paclitaxel retained” value [2] is on record?
The value was 60%.
